Laboratory results published in article PMC4022514, “The C-Terminal Domain from S. cerevisiae Pat1 Displays Two Conserved Regions Involved in Decapping Factor Recruitment” (PLoS ONE, 2014).

Experiments:
Scd6 (two-hybrid fusion) = target: T1, Scd6 (two-hybrid fusion) (S. cerevisiae, UniProt P45978 1-349); experiment: two-hybrid; yeast strain BSY2475, isogenic to MAV203 but lacking Edc3 (Δedc3); β-galactosidase activity by Beta-Glo; Pat1 fused to Gal4AD; conditions: partners not purified
T1 construct: Scd6, S. cerevisiae; source: yeast two-hybrid fusion
T1 sequence (looked up): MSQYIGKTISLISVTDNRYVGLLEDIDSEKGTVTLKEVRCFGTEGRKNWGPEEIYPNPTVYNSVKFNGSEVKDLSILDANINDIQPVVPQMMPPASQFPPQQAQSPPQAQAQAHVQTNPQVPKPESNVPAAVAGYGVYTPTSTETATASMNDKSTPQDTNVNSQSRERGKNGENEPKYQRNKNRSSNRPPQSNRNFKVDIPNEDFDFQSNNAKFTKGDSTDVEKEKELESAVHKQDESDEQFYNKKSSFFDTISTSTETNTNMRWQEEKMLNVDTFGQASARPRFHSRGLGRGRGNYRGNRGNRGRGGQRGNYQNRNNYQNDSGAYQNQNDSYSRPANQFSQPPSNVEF

[1] = target: T2, Edc3 (two-hybrid fusion to the DNA binding domain) (S. cerevisiae, UniProt P39998 1-551); experiment: as above; conditions: partners not purified
T2 construct: Edc3, S. cerevisiae; The bridge between Pat1 and Rps28 in the wild-type host strain is the strain's endogenous Edc3, the same protein without the fusion; source: yeast two-hybrid fusion
T2 sequence (looked up): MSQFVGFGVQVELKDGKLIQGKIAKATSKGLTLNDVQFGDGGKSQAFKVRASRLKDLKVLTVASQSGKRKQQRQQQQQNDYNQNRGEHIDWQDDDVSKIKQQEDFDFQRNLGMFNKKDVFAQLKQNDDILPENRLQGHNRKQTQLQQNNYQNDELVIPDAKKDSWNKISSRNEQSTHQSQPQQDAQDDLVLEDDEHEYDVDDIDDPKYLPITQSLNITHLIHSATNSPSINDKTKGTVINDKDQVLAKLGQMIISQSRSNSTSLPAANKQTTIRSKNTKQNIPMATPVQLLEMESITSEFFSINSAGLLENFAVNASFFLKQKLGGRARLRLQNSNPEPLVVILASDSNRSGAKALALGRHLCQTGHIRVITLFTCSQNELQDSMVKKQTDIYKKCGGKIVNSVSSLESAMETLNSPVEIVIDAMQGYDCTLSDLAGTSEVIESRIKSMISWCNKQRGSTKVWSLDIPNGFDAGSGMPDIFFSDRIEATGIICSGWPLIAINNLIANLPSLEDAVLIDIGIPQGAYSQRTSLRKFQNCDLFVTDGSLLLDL

B1: full-length ScPat1 (two-hybrid fusion to Gal4AD) (natural protein, S. cerevisiae, UniProt P25644 1-796, looked up)
chain: MSFFGLENSGNARDGPLDFEESYKGYGEHELEENDYLNDETFGDNVQVGTDFDFGNPHSSGSSGNAIGGNGVGATARSYVAATAEGISGPRTDGTAAAGPLDLKPMESLWSTAPPPAMAPSPQSTMAPAPAPQQMAPLQPILSMQDLERQQRQMQQQFMNFHAMGHPQGLPQGPPQQQFPMQPASGQPGPSQFAPPPPPPGVNVNMNQMPMGPVQVPVQASPSPIGMSNTPSPGPVVGATKMPLQSGRRSKRDLSPEEQRRLQIRHAKVEKILKYSGLMTPRDKDFITRYQLSQIVTEDPYNEDFYFQVYKIIQRGGITSESNKGLIARAYLEHSGHRLGGRYKRTDIALQRMQSQVEKAVTVAKERPSKLKDQQAAAGNSSQDNKQANTVLGKISSTLNSKNPRRQLQIPRQQPSDPDALKDVTDSLTNVDLASSGSSSTGSSAAAVASKQRRRSSYAFNNGNGATNLNKSGGKKFILELIETVYEEILDLEANLRNGQQTDSTAMWEALHIDDSSYDVNPFISMLSFDKGIKIMPRIFNFLDKQQKLKILQKIFNELSHLQIIILSSYKTTPKPTLTQLKKVDLFQMIILKIIVSFLSNNSNFIEIMGLLLQLIRNNNVSFLTTSKIGLNLITILISRAALIKQDSSRSNILSSPEISTWNEIYDKLFTSLESKIQLIFPPREYNDHIMRLQNDKFMDEAYIWQFLASLALSGKLNHQRIIIDEVRDEIFATINEAETLQKKEKELSVLPQRSQELDTELKSIIYNKEKLYQDLNLFLNVMGLVYRDGEISELK
notes: Pat1, S. cerevisiae, full-length; pBS2374 is named only as the template for the Gal4AD-Pat1ΔC68 plasmid pBS4907; also called wild type ScPat1; full-length Pat1 protein; source: yeast two-hybrid fusion
- fold two-hybrid signal, Δedc3 strain over wild type strain (Scd6 (two-hybrid fusion)): 3 fold
- fold two-hybrid signal, Δedc3 strain over wild type strain [1]: > 60 fold
